B1: Azoarcus group I ribozyme (parent)
chain: GUGCCUUGCGCCGGGAAACCACGCAAGGGAUGGUGUCAAAUUCGGCGAAACCUAAGCGCCCGCCCGGGCGUAUGGCAACGCCGAGCCAAGCUUCGGCGCCUGCGCCGAUGAAGGUGUAGAGACUAGACGGCACCCACCUAAGGCAAACGCUAUGGUGAAGGCAUAGUCCAGGGAGUGGCGAAAGUCACACAAACCGG

Variants of: B1
Assay: reverse-splicing fitness (ratio to wild type); higher = more active; in vitro selection; Mg2+ level not given
How it was run: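 An in vitro group I ribozyme library with randomized positions was T7-transcribed and gel-purified. In triplicate, 10 pmol RNA in EPPS pH 7.5 was reacted with 50 pmoles of a 30-nt RNA substrate for 1 h at 37 °C across several added MgCl2 levels (1–48 mM), then stopped with EDTA. Products were reverse transcribed from a substrate-complementary primer, PCR-amplified and sequenced (HiSeq 4000). Fitness is a variant's read proportion after selection over that before, normalised to wild type.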

Row | Variant | reverse-splicing fitness
1 | GUGCCUUGCGCCGGGAAACCACGCAAGGGAUGGUGUCAAAUUCGGCGAAACCUAAGCGCCCGCCCGGGCGUAUGGCAACGCGGAGCCAAGCUUCGGCGCCUGCGCCGAUGGAGGUGUAGGGACUAGACGGCACCCACCUAAGGCGAACGAUAUGGUGAAGGCAUAGUCUAGGGAGAGGCGAAAGUCACACAAACCGG [C82G A111G A120G A145G C150A C169U U176A] | 0.0177
2 | GUGCCUUGCGCCGGGAAACCACGCAAGGGAUGGUGUCAAAUUCGGCGAAACCUAAGCGCCCGCCCGGGCGUAUGGCAACGCGGAGCCAAGCUUCGGCGCCUGCGCCGAUGGAGGUGUAGGGACUAGACGGCACCCACCUAAGGCGAACGAUAUGGUGAAGGCAUAGUCUAGGGAGCGGCGAAAGUCACACAAACCGG [C82G A111G A120G A145G C150A C169U U176C] | 0.0177
3 | GUGCCUUGCGCCGGGAAACCACGCAAGGGAUGGUGUCAAAUUCGGCGAAACCUAAGCGCCCGCCCGGGCGUAUGGCAACGCGGAGCCAAGCUUCGGCGCCUGCGCCGAUGGAGGUGUAGGGACUAGACGGCACCCACCUAAGGCGAACGAUAUGGUGAAGGCAUAGUCUAGGGAGGGGCGAAAGUCACACAAACCGG [C82G A111G A120G A145G C150A C169U U176G] | 0.00809
4 | GUGCCUUGCGCCGGGAAACCACGCAAGGGAUGGUGUCAAAUUCGGCGAAACCUAAGCGCCCGCCCGGGCGUAUGGCAACGCGGAGCCAAGCUUCGGCGCCUGCGCCGAUGGAGGUGUAGGGACUAGACGGCACCCACCUAAGGCCAACGCUAUGGUGAAGGCAUAGUCUAGGGAGUGGCGAAAGUCACACAAACCGG [C82G A111G A120G A145C C169U] | 0.0132
5 | GUGCCUUGCGCCGGGAAACCACGCAAGGGAUGGUGUCAAAUUCGGCGAAACCUAAGCGCCCGCCCGGGCGUAUGGCAACGCGGAGCCAAGCUUCGGCGCCUGCGCCGAUGGAGGUGUAGGGACUAGACGGCACCCACCUAAGGCCAACGCUAUGGUGAAGGCAUAGUCAAGGGAGUGGCGAAAGUCACACAAACCGG [C82G A111G A120G A145C C169A] | 0.0114
6 | GUGCCUUGCGCCGGGAAACCACGCAAGGGAUGGUGUCAAAUUCGGCGAAACCUAAGCGCCCGCCCGGGCGUAUGGCAACGCGGAGCCAAGCUUCGGCGCCUGCGCCGAUGGAGGUGUAGGGACUAGACGGCACCCACCUAAGGCCAACGCUAUGGUGAAGGCAUAGUCGAGGGAGUGGCGAAAGUCACACAAACCGG [C82G A111G A120G A145C C169G] | 0.0204
7 | GUGCCUUGCGCCGGGAAACCACGCAAGGGAUGGUGUCAAAUUCGGCGAAACCUAAGCGCCCGCCCGGGCGUAUGGCAACGCGGAGCCAAGCUUCGGCGCCUGCGCCGAUGGAGGUGUAGGGACUAGACGGCACCCACCUAAGGCGAACGAUAUGGUGAAGGCAUAGUCCAGGGAGAGGCGAAAGUCACACAAACCGG [C82G A111G A120G A145G C150A U176A] | 0.0107
8 | GUGCCUUGCGCCGGGAAACCACGCAAGGGAUGGUGUCAAAUUCGGCGAAACCUAAGCGCCCGCCCGGGCGUAUGGCAACGCGGAGCCAAGCUUCGGCGCCUGCGCCGAUGGAGGUGUAGGGACUAGACGGCACCCACCUAAGGCGAACGAUAUGGUGAAGGCAUAGUCCAGGGAGUGGCGAAAGUCACACAAACCGG [C82G A111G A120G A145G C150A] | 0.0101
9 | GUGCCUUGCGCCGGGAAACCACGCAAGGGAUGGUGUCAAAUUCGGCGAAACCUAAGCGCCCGCCCGGGCGUAUGGCAACGCGGAGCCAAGCUUCGGCGCCUGCGCCGAUGGAGGUGUAGGGACUAGACGGCACCCACCUAAGGCCAACGCUAUGGUGAAGGCAUAGUCUAGGGAGGGGCGAAAGUCACACAAACCGG [C82G A111G A120G A145C C169U U176G] | 0.00427
10 | GUGCCUUGCGCCGGGAAACCACGCAAGGGAUGGUGUCAAAUUCGGCGAAACCUAAGCGCCCGCCCGGGCGUAUGGCAACGCGGAGCCAAGCUUCGGCGCCUGCGCCGAUGGAGGUGUAGGGACUAGACGGCACCCACCUAAGGCCAACGCUAUGGUGAAGGCAUAGUCUAGGGAGCGGCGAAAGUCACACAAACCGG [C82G A111G A120G A145C C169U U176C] | 0.0166
11 | GUGCCUUGCGCCGGGAAACCACGCAAGGGAUGGUGUCAAAUUCGGCGAAACCUAAGCGCCCGCCCGGGCGUAUGGCAACGCGGAGCCAAGCUUCGGCGCCUGCGCCGAUGGAGGUGUAGGGACUAGACGGCACCCACCUAAGGCCAACGCUAUGGUGAAGGCAUAGUCUAGGGAGAGGCGAAAGUCACACAAACCGG [C82G A111G A120G A145C C169U U176A] | 0.0179
12 | GUGCCUUGCGCCGGGAAACCACGCAAGGGAUGGUGUCAAAUUCGGCGAAACCUAAGCGCCCGCCCGGGCGUAUGGCAACGCGGAGCCAAGCUUCGGCGCCUGCGCCGAUGGAGGUGUAGGGACUAGACGGCACCCACCUAAGGCGAACGAUAUGGUGAAGGCAUAGUCGAGGGAGAGGCGAAAGUCACACAAACCGG [C82G A111G A120G A145G C150A C169G U176A] | 0.0177
13 | GUGCCUUGCGCCGGGAAACCACGCAAGGGAUGGUGUCAAAUUCGGCGAAACCUAAGCGCCCGCCCGGGCGUAUGGCAACGCGGAGCCAAGCUUCGGCGCCUGCGCCGAUGGAGGUGUAGGGACUAGACGGCACCCACCUAAGGCGAACGAUAUGGUGAAGGCAUAGUCGAGGGAGCGGCGAAAGUCACACAAACCGG [C82G A111G A120G A145G C150A C169G U176C] | 0.0272
14 | GUGCCUUGCGCCGGGAAACCACGCAAGGGAUGGUGUCAAAUUCGGCGAAACCUAAGCGCCCGCCCGGGCGUAUGGCAACGCGGAGCCAAGCUUCGGCGCCUGCGCCGAUGGAGGUGUAGGGACUAGACGGCACCCACCUAAGGCGAACGAUAUGGUGAAGGCAUAGUCGAGGGAGGGGCGAAAGUCACACAAACCGG [C82G A111G A120G A145G C150A C169G U176G] | 0.00618
15 | GUGCCUUGCGCCGGGAAACCACGCAAGGGAUGGUGUCAAAUUCGGCGAAACCUAAGCGCCCGCCCGGGCGUAUGGCAACGCGGAGCCAAGCUUCGGCGCCUGCGCCGAUGGAGGUGUAGGGACUAGACGGCACCCACCUAAGGCGAACGAUAUGGUGAAGGCAUAGUCAAGGGAGCGGCGAAAGUCACACAAACCGG [C82G A111G A120G A145G C150A C169A U176C] | 0.0231

— the RNAGym collection of RNA variant scans (doi:10.1093/molbev/msab373)
